From patent publication US20260200990A1, “MODIFIED LONG PEPTIDES SUITABLE FOR USE IN IMMUNISATION” (ISABELLA PHARMA B.V., priority 2022, published 2026)
Ends that are not written are not given here.

Legend:
[1] = Stability of cysteine and cystine-containing peptides in 20% v/v DMSO in WFI (UPLC-UV-MS purity); format: physicochemical; conditions: room temperature
Experimental: To examine the effect on stability of a peptide that contains cysteine(s) (non-oxidized, C) or cystine(s) (oxidized, C (C)) in a formulation matrix (20% v/v DMSO in WFI (water for injection), four non-oxidized (SEQ ID NO: 1, 2, 3 and 4) and their oxidized, cystine-containing, peptides were manufactured and individually examined in 20% v/v DMSO (aq.)
Each peptide (2.0 mg) was dissolved in 2.0 ml of 0.09% TFA in H2O: acetonitrile (1:1, v/v). Aliquots of 200 μL were transferred to a 1 mL amber vial and then freeze dried overnight. An aliquot (0.2 mg) was then redissolved in 20% v/v DMSO in WFI (1 mL). After swirling for 2 minutes, a sample was analyzed by UPLC-UV-MS. The remainder of the sample was stored at room temperature and analyzed at different time intervals (1 h, 2 h, 3 h, 4 h). The identity and purity of the purified peptides were then determined by UPLC-UV-MS on a Waters Acquity UPLC/TQD system using an C18 Waters Acquity BEH130 analytical column (1.7 μm particle size, 2.1×150 mm, flow 0.4 mL/min) with a linear gradient (5% B to 95% B, linear gradient in 10 min). The absorbance was measured at 220 nm.
MassLynx v4.1 was used to integrate the individual peaks of the chromatogram in the region of the observed peptide-derived signals. The following ApexTrack peak detection parameters were used for integration: peak-to-peak baseline noise was set at automatic, peak width at 5% height was set at automatic, baseline start threshold of 0.05% and baseline end threshold of 0.05%. The detect shoulder function was turned on. The following response thresholds were set: relative height of 0.20 and relative area of 0.10. After the peak of the desired peptide was identified by MS, the corresponding integral of the peak in the UV chromatogram is reported in Table 2 as percentage of the total integrated peaks, purity (% a/a).
Purity of the non-oxidized and oxidized peptide composition over time was evaluated over 4 h. Additional mass adducts, consistent with the formation of intermolecular or intramolecular disulfide bonds, increased over time in all spectra of cysteine-containing peptides compared to cystine-containing peptides. The purity of the non-oxidized peptides set forth in SEQ ID NO: 1, 3 and 4 declined from >90% a/a at to less than 80% a/a with the lowest stability observed for SEQ ID NO: 1 with a purity of 64% a/a after 4 h. For the cystine-containing peptide analogs, the purity remained >90% a/a after 4 h.

[2] = Stability of peptide mixtures under long term and accelerated storage (UPLC); format: physicochemical; conditions: peptide in mixture of 6 peptides
Experimental: To examine the effect on stability of peptides that contain cystine (oxidized, C (C)) present in a mixture of 6 peptides, two examples of mixtures of both non-cysteine-containing (NCC1-6) and cystine-containing (SEQ ID NO: 1-6) peptides were assessed. Typical chromatograms of the two mixtures are depicted in FIG. 2. Both mixtures were placed on two different storage conditions, ‘long term storage condition’ (i.e. −20±5° C.) and ‘accelerated storage condition’ (i.e. 5±3° C.).
The purity, the level of impurities, and the quantification per peptide of both mixtures are determined by reversed phase rapid UPLC using a mobile phase gradient of ACN/IPA and water with TFA, and UV detection at λ=220 nm. The method quantifies main peaks and impurities in mixtures of peptides. The reporting threshold for the method is 0.10% a/a.
Both mixtures of six peptides were stored under the two conditions described and by using the analytical method as described. The stability was monitored. The quantity of each of the peptides present in the mix (assay values), the purity, and the individual impurities were measured at several timepoints over a period of 3 months. […] Furthermore, focussing on the individual impurities it is shown that no significant degradation has taken place as all levels remain constant and no new impurities have formed.

| Sequence | Purity (% a/a) ([1]; Time 0 h) | Purity (% a/a) ([1]; Time 1 h) | Purity (% a/a) ([1]; Time 2 h) | Purity (% a/a) ([1]; Time 3 h) | Purity (% a/a) ([1]; Time 4 h) | Assay (net peptide content) (mg/vial) ([2]; Initial) | Assay (net peptide content) (mg/vial) ([2]; Storage at 5 ± 3° C., T1M) | Assay (net peptide content) (mg/vial) ([2]; Storage at 5 ± 3° C., T2M) | Assay (net peptide content) (mg/vial) ([2]; Storage at 5 ± 3° C., T3M) | Assay (net peptide content) (mg/vial) ([2]; Storage at −20 ± 5° C., T2M) | Assay (net peptide content) (mg/vial) ([2]; Storage at −20 ± 5° C., T3M) |
| --- | --- | --- | --- | --- | --- | --- | --- | --- | --- | --- | --- |
| AARLCCQLDPARDVLCLRPVGAESR [Cystine(C(C)) containing SEQ ID NO: 4] | 93.50 | 94.26 | 93.58 | 93.16 | 92.89 | 0.21 | 0.20 | 0.21 | 0.21 | 0.20 | 0.21 |
| VLSRKYTSFPWLLGCTANWILRGTSFVYVPSALNPA [Cystine(C(C)) containing SEQ ID NO: 3] (VLSRKYTSFPWLLGC(Cys)TANWILRGTSFVYVPSALNPA) [HBV Pol fragment SLP with cysteinylated cysteine] | 97.44 | 97.48 | 97.28 | 97.30 | 97.34 | 0.24 | 0.23 | 0.24 | 0.25 | 0.24 | 0.25 |
| AARLCCQLDPARDVLCLRPVGAESR [Cysteine (C) containing SEQ ID NO: 4, reference compound] | 96.51 | 90.72 | 83.13 | 77.16 | 72.13 |  |  |  |  |  |  |
| VLSRKYTSFPWLLGCTANWILRGTSFVYVPSALNPA [Cysteine (C) containing SEQ ID NO: 3, HBV Pol fragment, unmodified cysteine comparator, reference compound] | 97.66 | 93.48 | 87.94 | 84.12 | 79.81 |  |  |  |  |  |  |
| HLSLRGLPVCAFSSAGPCALRFTSA [Cystine(C(C)) containing SEQ ID NO: 1] | 97.14 | 96.67 | 95.10 | 95.97 | 95.74 | 0.24 | 0.23 | 0.24 | 0.23 | 0.24 | 0.24 |
| HLSLRGLPVCAFSSAGPCALRFTSA [Cysteine (C) containing SEQ ID NO: 1, reference compound] | 95.01 | 86.88 | 78.20 | 70.34 | 64.12 |  |  |  |  |  |  |
